Assay [1] has as its target human serum albumin (HSA) (human), P02768. The assay is described as follows: competition SPA on biotinylated HSA, 125I acylated GLP-1 tracer. The following applies: remark: other sources report otherwise.
In assay [2] the target is human serum albumin (HSA) (human) (UniProt P02768). The description is as above.

Non-standard residues stand in square brackets, D forms with d. No end group written: not given here. Aib = CC(C)(N)C(=O)O

B1: N-epsilon26-[(S)-4-Carboxy-4-({trans-4-[(19-carboxynonadecanoylamino)methyl]cyclohexanecarbonyl}amino)butyryl][Aib8,Arg34]GLP-1-(7-37) (peptide)
peptide: HAEGTFTSDVSSYLEGQAAKEFIAWLVRGRG
modifications: here or on the partner: Aib8; Lys26 N-epsilon carries the acyl side chain printed in the name; biotinylated
In turn, B1 showed an EC50 in assay [1] of 300 to 800 nM.

B2: N-epsilon23-[2-(2-[2-(2-[2-(2-((R)-3-[1-(17-Carboxyheptadecanoylamino)piperidin-4-ylcarbonylamino]-3-(carboxypropionylamino)ethoxy)ethoxy]acetylamino)ethoxy]eth … (peptide)
peptide: H[Aib]EGTFTSDVSSYLEGKAAREFIAWLVRGRG
modifications: not fully specified (residue 17); printed as N-epsilon23-[2-(2-[2-(2-[2-(2-(R)-3-[1-(17-Carboxyheptadecanoylamino)piperidin-4-ylcarbonylamino]-3-(carboxypropionylamino)ethoxy)ethoxy]acetylamino)ethoxy]ethoxy)acetyl][Aib8,Arg26,Arg 34]GLP-1-(7-37)
As for B2, the EC50 in assay [2] lay within 300 to 800 nM.

One may read the EC50 as the concentration that produces a half-maximal response. A higher EC50 goes with a need for much substance.

Source of the values: patent US20140011732A1.
